Measurements published in patent US20240392003A1 (NUMAB THERAPEUTICS, published 2024).
Read-outs that look alike come from different tables or passages of the source.

B1: PRO2658 (bispecific antibody)
chain 1: AQQLTQSPSSLSASVGDRVTITCQASQNVWNNNYLSWFQQKPGKPPKLLIVTASTLASGVSSRFSGSGSGTDFTLTISSLQPEDFATYYCAGGFSGEIRAFGTGTKVTVLGGGGGSGGGGSGGGGSGGGGSQSQLVESGGGLVQPGGSLRLSCAVSGLSLSRNAMSWVRQAPGKGLEWIGIILTSGSTYYASWAKGRFTISKDNSKNTVYLQMNSLRAEDTAVYFCVRGIASSSLKSFWGQGTLVTVSSGGGGSGGGGSAFELTQSPSSLSASVGDRVTITCQASESINSRLAWYQQKPGQPPKLLIYDASDLTSGVPSRFSGSGSGTDFTLTISSLQPEDFATYYCQGYGGSSTTTFGCGTKLTVLGGGSGGSDIQMTQSPSSLSASVGDRVTITCQSSQSVFSNNYLAWFQQKPGQSPKRLIYSASTLASGVPSRFSGSGSGTDFTLTISSLQPEDFATYYCLGSYACSSADCYVFGTGTKVTVLG
chain 2: AQQLTQSPSSLSASVGDRVTITCQASQNVWNNNYLSWFQQKPGKPPKLLIVTASTLASGVSSRFSGSGSGTDFTLTISSLQPEDFATYYCAGGFSGEIRAFGTGTKVTVLGGGGGSGGGGSGGGGSGGGGSQSQLVESGGGLVQPGGSLRLSCAVSGLSLSRNAMSWVRQAPGKGLEWIGIILTSGSTYYASWAKGRFTISKDNSKNTVYLQMNSLRAEDTAVYFCVRGIASSSLKSFWGQGTLVTVSSGGGGSGGGGSEVQLVESGGGLVQPGGSLRLSCAASGFSLSSYDMSWVRQAPGKGLAWIGASYASGPTYYASWAKGRFTISRDNSKNTVYLQMNSLRAEDTATYFCARGGWTGTSHSNIWGQGTLVTVSSGGGSGGGSGGGSGEVQLVESGGGLVQPGGSLRLSCAASGFSLSSYAMNWVRQAPGKCLEWIGHINAGDIAYYATWAKGRFTISRDNSKNTVYLQMNSLRAEDTAVYFCARGAGGFSTGPFKLWGQGTLVTVSS
notes: heterodimeric MATCH4
B2: PRO2670 (bispecific antibody)
chain 1: DVQMTQSPSSLSASVGDRVTITCRASENIYSGLAWYQQKPGKPPKLLIYRASTLASGVSSRFSGSGSGTDFTLTISSLQPEDFATYYCQGGYYSSSSTYIAFGCGTKVTVLGGGGGSGGGGSGGGGSGGGGSQSQVVESGGGRVQPGGSLRLSCAVSGFDLSSYAVSWVRQAPGKCLEWIGIIYPRANTYYASWAKGRFTISKDNSKNTVYLQMNSLRAEDTATYFCARDRYDSGAYLYTTYFNLWGQGTQVTVSSGGGGSGGGGSAFELTQSPSSLSASVGDRVTITCQASESINSRLAWYQQKPGQPPKLLIYDASDLTSGVPSRFSGSGSGTDFTLTISSLQPEDFATYYCQGYGGSSTTTFGCGTKLTVLGGGSGGSDIQMTQSPSSLSASVGDRVTITCQSSQSVFSNNYLAWFQQKPGQSPKRLIYSASTLASGVPSRFSGSGSGTDFTLTISSLQPEDFATYYCLGSYACSSADCYVFGTGTKVTVLG
chain 2: DVQMTQSPSSLSASVGDRVTITCRASENIYSGLAWYQQKPGKPPKLLIYRASTLASGVSSRFSGSGSGTDFTLTISSLQPEDFATYYCQGGYYSSSSTYIAFGCGTKVTVLGGGGGSGGGGSGGGGSGGGGSQSQVVESGGGRVQPGGSLRLSCAVSGFDLSSYAVSWVRQAPGKCLEWIGIIYPRANTYYASWAKGRFTISKDNSKNTVYLQMNSLRAEDTATYFCARDRYDSGAYLYTTYFNLWGQGTQVTVSSGGGGSGGGGSEVQLVESGGGRVQPGGSLRLSCAASGFSLSSYDMSWVRQAPGKGLAWIGASYASGPTYYASWAKGRFTISRDNSKNTVYLQMNSLRAEDTATYFCARGGWTGTSHSNIWGQGTQVTVSSGGGSGGGSGGGSGEVQLVESGGGRVQPGGSLRLSCAASGFSLSSYAMNWVRQAPGKCLEWIGHINAGDIAYYATWAKGRFTISRDNSKNTVYLQMNSLRAEDTATYFCARGAGGFSTGPFKLWGQGTQVTVSS
notes: heterodimeric MATCH4, modified VH domains, optimized variant of PRO2590; also called MATCH4 with 55-38-D07-sc06(RTQ) / 19-04-A10-sc02(RTQ) diS / 28-21-D09-sc04(RTQ) / 55-38-D07-sc06(RTQ); RPO2670
B3: PRO2286 (bispecific antibody)
chain: DVVMTQSPSSLSASVGDRVTITCQASQIISSRSAWYQQKPGQPPKLLIYQASKLASGVPSRFSGSGSGTDFTLTISSLQPEDFATYYCQCTYIDSNFGAFGCGTKLTVLGGGGGSEVQLVESGGGLVQPGGSLRLSCAASGFSLSSYDMSWVRQAPGKGLAWIGASYASGPTYYASWAKGRFTISRDNSKNTVYLQMNSLRAEDTATYFCARGGWTGTSHSNIWGQGTLVTVSSGGGGSGGGGSGGGGSGGGGSDIQMTQSPSSLSASVGDRVTITCQSSQSVFSNNYLAWFQQKPGQSPKRLIYSASTLASGVPSRFSGSGSGTDFTLTISSLQPEDFATYYCLGSYACSSADCYVFGTGTKVTVLGGGGGSEVQLVESGGGLVQPGGSLRLSCAASGFSFSSSYWICWVRQAPGKCLEWVGCVFTGDGTTYYASWAKGRFTISRDNSKNTVYLQMNSLRAEDTATYFCARPVSVYYYGMDLWGQGTLVTVSSGGGGSGGGGSAQQLTQSPSSLSASVGDRVTITCQASQNVWNNNYLSWFQQKPGKPPKLLIVTASTLASGVSSRFSGSGSGTDFTLTISSLQPEDFATYYCAGGFSGEIRAFGTGTKVTVLGGGGGSGGGGSGGGGSGGGGSQSQLVESGGGLVQPGGSLRLSCAVSGLSLSRNAMSWVRQAPGKGLEWIGIILTSGSTYYASWAKGRFTISKDNSKNTVYLQMNSLRAEDTAVYFCVRGIASSSLKSFWGQGTLVTVSS
notes: trispecific anti-ROR1 x hSA x CD3 scMATCH3, single chain; also called 23-13-A01-sc02 diS scDb-o/28-21-D09-sc04 scDb-i/55-39-G02-sc02-scFv
B4: PRO2287 (bispecific antibody)
chain: DIQMTQSPSSLSASVGDRVTITCQSSESVYSNNQLSWYQQKPGQPPKLLIYDASDLASGVPSRFSGSGSGTDFTLTISSLQPEDFATYYCAGGFSSSSDTAFGCGTKLTVLGGGGGSEVQLVESGGGLVQPGGSLRLSCAASGFSLSSYDMSWVRQAPGKGLAWIGASYASGPTYYASWAKGRFTISRDNSKNTVYLQMNSLRAEDTATYFCARGGWTGTSHSNIWGQGTLVTVSSGGGGSGGGGSGGGGSGGGGSDIQMTQSPSSLSASVGDRVTITCQSSQSVFSNNYLAWFQQKPGQSPKRLIYSASTLASGVPSRFSGSGSGTDFTLTISSLQPEDFATYYCLGSYACSSADCYVFGTGTKVTVLGGGGGSEVQLVESGGGLVQPGGSLRLSCAASGFSLSSNAMGWVRQAPGKCLEYIGIISVGGFTYYASWAKGRFTISRDNSKNTVYLQMNSLRAEDTATYFCARDRHGGDSSGAFYLWGQGTLVTVSSGGGGSGGGGSAQQLTQSPSSLSASVGDRVTITCQASQNVWNNNYLSWFQQKPGKPPKLLIVTASTLASGVSSRFSGSGSGTDFTLTISSLQPEDFATYYCAGGFSGEIRAFGTGTKVTVLGGGGGSGGGGSGGGGSGGGGSQSQLVESGGGLVQPGGSLRLSCAVSGLSLSRNAMSWVRQAPGKGLEWIGIILTSGSTYYASWAKGRFTISKDNSKNTVYLQMNSLRAEDTAVYFCVRGIASSSLKSFWGQGTLVTVSS
notes: trispecific anti-ROR1 x hSA x CD3 scMATCH3, single chain; also called 19-01-H04-sc02/3 diS scDb-o/28-21-D09-sc04 scDb-i/55-39-G02-sc02 scFv

What was measured:
[1] = molecular target: T1, human ROR1 expressed on cells (human, UniProt Q01973 30-937); test: flow cytometry, MDA-MB-231 cells, 1 mg/ml hSA
T1 construct: whole, on cells; One molecule for cell-surface ROR1 on all cell lines; the cell line is named under assay; also called hROR1; plasma membrane human ROR1

[2] = molecular target: T2, recombinant human CD3 epsilon extra-cellular domain protein (His-Tag, SinoBiological) (human, UniProt P07766 23-126); test: SPR; hCD3ε immobilized, two-state fit (kd1)
T2 construct: extracellular domain; Bought; also called hCD3ε; human CD3ε; not shown: His tag

[3] = molecular target: T1, human ROR1 expressed on cells; test: flow cytometry, MDA-MB-231 cells, 1 mg/ml hSA; remark: listed apart in the source
[4] = molecular target: T3, human serum albumin (Sigma-Aldrich A3782) (human, UniProt P02768 25-609); test: SPR; hSA immobilized, pH 5.5
T3 construct: also called hSA; HSA

[5] = molecular target: T4, human ROR1 (Peprotech 160-054) (human, UniProt Q01973 30-406); test: SPR; MATCH4 captured, hROR1 analyte (Affinity)
T4 construct: Bought, used as analyte; also called hROR1; recombinant human ROR1 protein

[6] = molecular target: T5, recombinant human ROR1 protein (Fc-Tag, Acro Biosystems RO1-H5250) (human, UniProt Q01973 30-406); test: SPR; hROR1-Fc immobilized (Avidity)
T5 construct: Bought; also called hROR1; recombinant human ROR1 ECD; not shown: Fc tag

[7] = molecular target: T2, recombinant human CD3 epsilon …; test: SPR; hCD3ε immobilized, two-state fit (Ka1)
[8] = molecular target: T2, recombinant human CD3 epsilon …; test: SPR; hCD3ε immobilized, two-state fit
[9] = molecular target: T3, human serum albumin (Sigma-Aldrich …); test: SPR; hSA immobilized, pH 5.5; remark: listed apart in the source
[10] = molecular target: T5, recombinant human ROR1 protein (Fc-Tag, …); test: SPR; hROR1-Fc immobilized;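 further: biacore T200 SPR with ROR1 covalently coupled to a CM5 chip, analyte titration series, apparent rate and equilibrium constants fitted with a 1:1 Langmuir model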
[11] = molecular target: T2, recombinant human CD3 epsilon …; test: SPR; hCD3ε immobilized, two-state fit (kd1); remark: listed apart in the source
[12] = molecular target: T2, recombinant human CD3 epsilon …; test: SPR; hCD3ε immobilized, two-state fit; remark: listed apart in the source
[13] = molecular target: T1, human ROR1 expressed on cells; test: flow cytometry, MDA-MB-231 cells, 1 mg/ml hSA; remark: listed apart in the source
[14] = molecular target: T2, recombinant human CD3 epsilon …; test: SPR; hCD3ε immobilized, two-state fit (ka1)

| fold lower EC50 binding than parental scFv PRO2062 [1] [fold] | Kd [10] [nM] | koff [10] [s⁻¹] | kon [10] [M⁻¹ s⁻¹] | koff [11] [s⁻¹] | Kd [12] [nM] | ka2 [12] [s⁻¹] | kd2 [12] [s⁻¹] | EC50 [13] [nM] | Rel. maximum binding (MFIscMATCH3/MFIPRO2213) [13] | kon [14] [M⁻¹ s⁻¹] | further results | Binder |
| --- | --- | --- | --- | --- | --- | --- | --- | --- | --- | --- | --- | --- |
|  |  |  |  |  |  |  |  |  |  |  | binding result [1]: binds | B1 |
|  |  |  |  |  |  |  |  |  |  |  | koff [2]: 0.0048 s⁻¹; EC50 [3]: 0.85 nM; Rel. maximum binding (MFIMATCH4/MFIPRO2213) [3]: 2.68; rel. EC50 (EC50, PRO2213/EC50, MATCH4) [3]: 0.39; Kd [4]: 3.5 nM; koff [4]: 0.0013 s⁻¹; kon [4]: 370000 M⁻¹ s⁻¹; Kd [5]: 2.87 nM; koff [5]: 0.000132 s⁻¹; kon [5]: 46000 M⁻¹ s⁻¹; Kd [6]: 0.11 nM; koff [6]: 8.1e-05 s⁻¹; kon [6]: 760000 M⁻¹ s⁻¹; kon [7]: 820000 M⁻¹ s⁻¹; Ka2 [8]: 0.0054 s⁻¹; Kd [8]: 2.7 nM; Kd2 [8]: 0.0047 s⁻¹ | B2 |
| ~5 | 0.33 | 0.00045 | 1.4e+06 | 0.0027 | 1.5 | 0.00069 | 0.0011 | 1.33 | 1.87 | 1.1e+06 | Kd [9]: 0.062 nM; koff [9]: 6.7e-05 s⁻¹; kon [9]: 1.1e+06 M⁻¹ s⁻¹ | B3 |
| ~5 | 0.32 | 0.0004 | 1.3e+06 | 0.0034 | 2.1 | 0.0017 | 0.002 | 1.83 | 1.98 | 870000 |  | B4 |
